The values that follow come from patent US7901902B2, “Methods and compositions for identifying a cellular immune response against prostate cancer” (BioSante Pharmaceuticals, Inc., priority 2006, dated 2011).

The test has as its target HLA-A2 (Homo sapiens, UniProt P04439, D140Y/D185E/D98H/E176V/E277Q/G131W/G231S/I119V/I121R/I166T/I218V/L300P/L318F/N151K/N90K/P208A/P217A/Q86G/Q94H/R138H/R169H/T345S). The experiment in a line: HLA-A2 peptide binding assay on T2 cells (fluorescence index, flow cytometry). Conditions: summary of Tables 2 and 3. On the technique in general: In flow cytometry, cells or beads pass a laser one at a time.
On to “GLAPLEVRV (Filamin-B peptides) [Filamin B peptide # 3, 9-mer peptide selected from the filamin-B polypeptide]”, for which the “upregulation of HLA-A2 expression (in words)” value (“upregulation” for short) is “greatest upregulation”.
For “GLVEPVNMV (Filamin-B peptides) [Filamin B peptide # 2, 9-mer peptide selected from the filamin-B polypeptide]”, the “upregulation” value is given as “moderate upregulation”.
In the case of “GQGDVMVFV (Filamin-B peptides) [Filamin B peptide # 6, 9-mer peptide selected from the filamin-B polypeptide]”, the “upregulation” value is recorded as “moderate upregulation”.
Take “KLILGLVWT (Filamin-B peptides) [Filamin B peptide # 7, 9-mer peptide selected from the filamin-B polypeptide]”: the “upregulation” value is given as “upregulated HLA-A2 weakly”.
Under “LILGLVWTL (Filamin-B peptides) [Filamin B peptide # 1, 9-mer peptide selected from the filamin-B polypeptide]” stands “greatest upregulation”; under “RLIALLEVL (Filamin-B peptides) [Filamin B peptide # 5, 9-mer peptide selected from the filamin-B polypeptide]”, “greatest upregulation”; under “SLQESGLKV (Filamin-B peptides) [Filamin B peptide # 4, 9-mer peptide selected from the filamin-B polypeptide]”, “moderate upregulation”.
